Laboratory results taken from PMC8591604 (2021).
[ ]: non-standard residue; d: D form. pY = N[C@@H](Cc1ccc(OP(=O)(O)O)cc1)C(=O)O

T1: N-SH2 domain of SHP2 (residues 2–111) (human, UniProt Q06124 2-111)
T1 chain: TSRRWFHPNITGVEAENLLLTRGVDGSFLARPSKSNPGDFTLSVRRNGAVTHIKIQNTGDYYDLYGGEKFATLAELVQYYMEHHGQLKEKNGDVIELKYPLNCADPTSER

B1: P8F5, P8 analogue with F at position +5 (peptide)
chain: Ac-LN[pY]IDLDF-NH2
SMILES: CC[C@H](C)[C@H](NC(=O)[C@H](Cc1ccc(OP(=O)(O)O)cc1)NC(=O)[C@H](CC(N)=O)NC(=O)[C@H](CC(C)C)NC(C)=O)C(=O)N[C@@H](CC(=O)O)C(=O)N[C@@H](CC(C)C)C(=O)N[C@@H](CC(=O)O)C(=O)N[C@@H](Cc1ccccc1)C(N)=O
B2: P8, unlabeled IRS-1 pY1172 peptide, residues −2 to +5 (peptide)
peptide: Ac-LN[pY]IDLDL-NH2
SMILES: CC[C@H](C)[C@H](NC(=O)[C@H](Cc1ccc(OP(=O)(O)O)cc1)NC(=O)[C@H](CC(N)=O)NC(=O)[C@H](CC(C)C)NC(C)=O)C(=O)N[C@@H](CC(=O)O)C(=O)N[C@@H](CC(C)C)C(=O)N[C@@H](CC(=O)O)C(=O)N[C@@H](CC(C)C)C(N)=O
B3: P8E4W5, P8 analogue with E at position +4 and W at position +5 (peptide)
chain: Ac-LN[pY]IDLEW-NH2
SMILES: CC[C@H](C)[C@H](NC(=O)[C@H](Cc1ccc(OP(=O)(O)O)cc1)NC(=O)[C@H](CC(N)=O)NC(=O)[C@H](CC(C)C)NC(C)=O)C(=O)N[C@@H](CC(=O)O)C(=O)N[C@@H](CC(C)C)C(=O)N[C@@H](CCC(=O)O)C(=O)N[C@@H](Cc1c[nH]c2ccccc12)C(N)=O

Legend:
[1] = molecular target: T1, N-SH2 domain of SHP2 (residues 2–111); test: FP
[2] = molecular target: T1, N-SH2 domain of SHP2 (residues 2–111); test: FP
[3] = molecular target: T1, N-SH2 domain of SHP2 (residues 2–111); test: FP; displacement of CF-P9W5
[4] = molecular target: T1, N-SH2 domain of SHP2 (residues 2–111); test: FP; displacement of CF-P9W5

Binder | Kd [1] [nM] | EC50 [2] [nM] | Kd [3] [nM] | EC50 [4] [nM]
B1 | 7 | 16 |  | 
B2 |  |  | 22 | 47
B3 | 4 | 11 |  | 
Ac-LN[pY]IDLDW-NH2 [P8W5, P8 analogue with W at position +5] |  | 5.4 |  | 
